According to paper PMC6171917 (PLoS ONE, 2018):

T1: K5/K14 (mixture or heterodimer of full-length cytokeratins 5 and 14) (UniProt P13647 1-590; P02533 1-472)
T1 construct: cytokeratin 5 (K5), plasmid pET23-K5; cytokeratin 14 (K14), plasmid pET23-K14; Same two recombinant proteins used spotted in 8 M urea (dot blot) and as in vitro assembled filaments (sedimentation assays); also called K5/K14 IFs; K5/K14 filaments; source: mixed for spotting, or heterodimer isolated by anion exchange and assembled into IFs
T1 sequence (looked up) 1: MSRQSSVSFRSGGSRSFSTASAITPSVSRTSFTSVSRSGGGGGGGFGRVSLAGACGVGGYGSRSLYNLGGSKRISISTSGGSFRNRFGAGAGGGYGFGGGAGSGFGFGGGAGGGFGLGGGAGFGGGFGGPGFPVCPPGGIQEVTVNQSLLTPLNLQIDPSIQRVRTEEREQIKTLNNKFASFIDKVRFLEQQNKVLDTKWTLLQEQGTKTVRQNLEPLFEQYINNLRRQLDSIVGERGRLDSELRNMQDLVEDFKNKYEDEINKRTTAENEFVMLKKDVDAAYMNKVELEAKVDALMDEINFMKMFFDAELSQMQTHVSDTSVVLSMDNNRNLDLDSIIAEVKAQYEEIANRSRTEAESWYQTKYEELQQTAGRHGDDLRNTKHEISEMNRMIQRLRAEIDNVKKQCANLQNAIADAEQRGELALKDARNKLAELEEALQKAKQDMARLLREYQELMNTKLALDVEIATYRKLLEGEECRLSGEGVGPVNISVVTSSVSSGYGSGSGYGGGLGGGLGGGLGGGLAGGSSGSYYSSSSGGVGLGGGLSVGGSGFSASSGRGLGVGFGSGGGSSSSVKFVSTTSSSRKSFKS
T1 sequence (looked up) 2: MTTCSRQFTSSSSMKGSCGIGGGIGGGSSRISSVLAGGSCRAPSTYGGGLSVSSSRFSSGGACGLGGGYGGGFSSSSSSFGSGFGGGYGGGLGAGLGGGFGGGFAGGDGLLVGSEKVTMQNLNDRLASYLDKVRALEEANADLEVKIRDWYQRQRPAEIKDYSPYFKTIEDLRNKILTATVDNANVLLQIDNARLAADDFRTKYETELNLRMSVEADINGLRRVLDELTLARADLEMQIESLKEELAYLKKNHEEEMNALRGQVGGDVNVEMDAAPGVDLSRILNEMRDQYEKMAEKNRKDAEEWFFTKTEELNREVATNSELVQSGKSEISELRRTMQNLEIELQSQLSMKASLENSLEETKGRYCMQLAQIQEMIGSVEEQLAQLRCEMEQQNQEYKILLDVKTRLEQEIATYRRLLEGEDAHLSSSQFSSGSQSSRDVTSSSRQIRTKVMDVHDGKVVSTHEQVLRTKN

T2: K5 (cytokeratin 5), purified (UniProt P13647 1-590)
T2 construct: cytokeratin 5 (K5), plasmid pET23-K5; source: E. coli Rosetta pLysS, inclusion bodies, purified (cation exchange, Superdex 200 in 6 M urea)
T2 sequence (looked up): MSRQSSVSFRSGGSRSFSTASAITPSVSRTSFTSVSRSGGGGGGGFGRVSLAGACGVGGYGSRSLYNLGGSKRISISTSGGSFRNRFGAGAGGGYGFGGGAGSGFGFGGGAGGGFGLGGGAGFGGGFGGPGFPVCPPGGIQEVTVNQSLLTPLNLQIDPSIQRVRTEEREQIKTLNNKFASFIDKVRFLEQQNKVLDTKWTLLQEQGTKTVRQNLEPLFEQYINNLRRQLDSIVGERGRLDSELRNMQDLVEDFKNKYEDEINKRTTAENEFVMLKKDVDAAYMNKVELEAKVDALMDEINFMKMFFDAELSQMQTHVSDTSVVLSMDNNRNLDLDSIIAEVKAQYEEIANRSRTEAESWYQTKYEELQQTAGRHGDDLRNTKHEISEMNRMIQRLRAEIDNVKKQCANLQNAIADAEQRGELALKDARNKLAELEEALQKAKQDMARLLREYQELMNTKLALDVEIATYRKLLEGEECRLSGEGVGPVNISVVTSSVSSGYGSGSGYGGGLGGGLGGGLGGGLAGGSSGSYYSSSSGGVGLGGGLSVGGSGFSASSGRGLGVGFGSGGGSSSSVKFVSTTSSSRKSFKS


Tests used:
[1] = molecular target: T1, K5/K14 (mixture or heterodimer of …); test: co-sedimentation; FluoBACE on in vitro assembled IFs (25 μg/mL constant); serial dilutions of HEK 293T soluble extract with EGFP-DSP C-terminus (active ≤ 30 nM); 15 min at 4°C (K5/K14 IFs) or 22°C (desmin IFs); 20,000 × g 30 min; fluorescence in supernatant; one site specific binding with Hill slope; apparent Kd; settings: one partner purified
desmin, full-length = molecular target: T3, desmin, full-length (UniProt P17661 1-470); test: as above; settings: one partner purified
T3 construct: desmin; The desmin fragments are said to be human; also called desmin IFs; source: E. coli, purified following a published protocol [37]; also whole E. coli extract; assembled in vitro into IFs for sedimentation assays
T3 sequence (P17661 whole entry, the tested form may be a part): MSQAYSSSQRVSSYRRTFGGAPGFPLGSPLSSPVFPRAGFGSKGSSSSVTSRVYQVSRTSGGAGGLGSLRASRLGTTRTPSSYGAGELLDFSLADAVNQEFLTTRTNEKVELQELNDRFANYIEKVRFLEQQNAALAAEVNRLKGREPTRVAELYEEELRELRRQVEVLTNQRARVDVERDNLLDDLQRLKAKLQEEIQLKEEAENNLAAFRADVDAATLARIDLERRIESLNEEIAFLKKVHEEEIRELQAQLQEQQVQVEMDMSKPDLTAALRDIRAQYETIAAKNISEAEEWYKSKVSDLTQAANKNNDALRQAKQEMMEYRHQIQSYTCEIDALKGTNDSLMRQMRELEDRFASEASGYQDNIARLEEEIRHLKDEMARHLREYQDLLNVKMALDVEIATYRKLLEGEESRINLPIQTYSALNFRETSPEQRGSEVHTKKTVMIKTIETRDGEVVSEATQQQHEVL

[2] = molecular target: T2, K5 (cytokeratin 5), purified; test: co-sedimentation; K5 and K14 mixed 1.1:1, heterodimer isolated on anion exchanger in 8 M urea, dialyzed against 0.7 mM sodium phosphate pH 7.5, assembly with 20 mM KCl at 37°C 30 min; 20,000 × g 4°C 30 min, pellet and supernatant by SDS-PAGE; settings: both partners purified

Binder	Kd [1] [nM]	Kd (desmin, full-length) [nM]	binding result [2]
EGFP-DSP C-terminus (C-terminus of desmoplakin tagged at the N-terminus with EGFP) (domain or fragment, UniProt P15924-1 2194-2871, looked up, construct previously described [8]; KD curves use the active concentration; source: HEK 293T, transfected (calcium phosphate), soluble fraction of cell lysate; not shown: EGFP, N-terminal, kept) PHTGLLLLSVQKRSMSFQGIRQPVTVTELVDSGILRPSTVNELESGQISYDEVGERIKDFLQGSSCIAGIYNETTKQKLGIYEAMKIGLVRPGTALELLEAQAATGFIVDPVSNLRLPVEEAYKRGLVGIEFKEKLLSAERAVTGYNDPETGNIISLFQAMNKELIEKGHGIRLLEAQIATGGIIDPKESHRLPVDIAYKRGYFNEELSEILSDPSDDTKGFFDPNTEENLTYLQLKERCIKDEETGLCLLPLKEKKKQVQTSQKNTLRKRRVVIVDPETNKEMSVQEAYKKGLIDYETFKELCEQECEWEEITITGSDGSTRVVLVDRKTGSQYDIQDAIDKGLVDRKFFDQYRSGSLSLTQFADMISLKNGVGTSSSMGSGVSDDVFSSSRHESVSKISTISSVRNLTIRSSSFSDTLEESSPIAAIFDTENLEKISITEGIERGIVDSITGQRLLEAQACTGGIIHPTTGQKLSLQDAVSQGVIDQDMATRLKPAQKAFIGFEGVKGKKKMSAAEAVKEKWLPYEAGQRFLEFQYLTGGLVDPEVHGRISTEEAIRKGFIDGRAAQRLQDTSSYAKILTCPKTKLKISYKDAINRSMVEDITGLRLLEAASVSSKGLPSPYNMSSAPGSRSGSRSGSRSGSRSGSRSGSRRGGFDATGNSSYSYSYSFSSSSIGH	10	18	–
K14 (cytokeratin 14), purified (natural protein, UniProt P02533 1-472, looked up, cytokeratin 14 (K14), plasmid pET23-K14; source: E. coli Rosetta, inclusion bodies, purified (anion exchange, gel filtration in 6 M urea)) MTTCSRQFTSSSSMKGSCGIGGGIGGGSSRISSVLAGGSCRAPSTYGGGLSVSSSRFSSGGACGLGGGYGGGFSSSSSSFGSGFGGGYGGGLGAGLGGGFGGGFAGGDGLLVGSEKVTMQNLNDRLASYLDKVRALEEANADLEVKIRDWYQRQRPAEIKDYSPYFKTIEDLRNKILTATVDNANVLLQIDNARLAADDFRTKYETELNLRMSVEADINGLRRVLDELTLARADLEMQIESLKEELAYLKKNHEEEMNALRGQVGGDVNVEMDAAPGVDLSRILNEMRDQYEKMAEKNRKDAEEWFFTKTEELNREVATNSELVQSGKSEISELRRTMQNLEIELQSQLSMKASLENSLEETKGRYCMQLAQIQEMIGSVEEQLAQLRCEMEQQNQEYKILLDVKTRLEQEIATYRRLLEGEDAHLSSSQFSSGSQSSRDVTSSSRQIRTKVMDVHDGKVVSTHEQVLRTKN	–	–	binds
